Laboratory results from patent US20250019439A1 (Adimab, published 2025).

B1: ADI-34145 IgG (antibody, V domains shown)
VH: EVQLLESGGGLVQPGGSLRLSCAASGFTFSSYAMSWVRQAPGKGLEWVSTISGSGGSTYYADSVKGRFTISRDNSKNTLYLQMNSLRAEDTAVYYCARLGGRRGSGSSYYYYYGMDVWGQGTTVTVSS
VL: not shown
notes: anti-ID IgG
B2: ADI-34134 IgG (antibody, V domains shown)
VH: QVQLVQSGAEVKKPGSSVKVSCKASGGTFSSYAISWVRQAPGQGLEWMGGIIPIFGTANYAQKFQGRVTITADESTSTAYMELSSLRSEDTAVYYCARGAPNYYGSGGYDDGWFDPWGQGTLVTVSS
VL: EIVLTQSPGTLSLSPGERATLSCRASQSVSSDYLAWYQQKPGQAPRLLIYGASSRATGIPDRFSGSGSGTDFTLTISRLEPEDFAVYYCQQFGRVPTFGGGTKVEIK

What was measured:
ADI-26916 IgG [1] = target: T1, ADI-26916 IgG; assay: SPR Carterra avidity, CHO anti-ID
T1 construct: anti-CD3 IgG
T1 sequence (VH, as listed by the source, chain 1 of 2): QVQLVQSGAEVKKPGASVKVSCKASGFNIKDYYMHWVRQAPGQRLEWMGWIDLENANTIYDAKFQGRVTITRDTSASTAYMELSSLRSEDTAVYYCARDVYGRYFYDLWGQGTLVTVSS
T1 sequence (VL, as listed by the source, chain 2 of 2): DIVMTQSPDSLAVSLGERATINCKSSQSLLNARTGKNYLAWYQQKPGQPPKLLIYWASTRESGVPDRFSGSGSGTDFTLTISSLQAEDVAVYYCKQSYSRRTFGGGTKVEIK
Protocol: (§1) Kinetic analysis was conducted at 25° C. in an HBSTE running buffer system (Carterra Cat #3630) using a Carterra LSA (Carterra USA, Salt Lake City, UT). The sample compartment was maintained at 20° C. for the duration of each experiment.
(§2) For antibody capture experiments, a goat anti-human Fc antibody (Jackson ImmunoResearch) was covalently coupled to an HC30M sensor chip surface via standard amine coupling (1:1 EDC:NHS) and then blocked with ethanolamine (1.0 M, pH 8.5). Covalent coupling steps were performed in 25 mM MES buffer (Carterra, Cat #3625) plus 0.05% Tween20. The anti-CD3 antibodies (100 nM in running buffer) were flowed over discrete regions of interest on the chip surface for 5 minutes. […] Dissociation of the anti-idiotype antibodies was monitored for 300s. Several blank buffer samples were injected over the entire chip surface at the start of each non-regenerative kinetic cycle. The preceding blank buffer injection was used for blank surface subtraction. At the end of each non-regenerative kinetic cycle, all surfaces were regenerated via two 30s injections of 10 mM glycine, pH 1.7.
(§3) In Tables 10A-10C, anti-CD3 antibodies are listed by ADI number or CTL number in the first column. […] CTL-62223 is mosunetuzumab, CTL-62227 is odronextamab, CTL-62228 is glofitamab, and CTL-62240 is ONO-4685. […] “W.B.” means weak binding under the conditions of this assay and thus a KD was unable to be assigned. “N.B.” means no binding under the conditions of this assay.

ADI-74968 = target: T2, ADI-74968; assay: SPR Carterra avidity, CHO anti-ID
T2 construct: pH-dependent anti-CD3 antibody made in CHO cells
T2 sequence (VH, as listed by the source, chain 1 of 2): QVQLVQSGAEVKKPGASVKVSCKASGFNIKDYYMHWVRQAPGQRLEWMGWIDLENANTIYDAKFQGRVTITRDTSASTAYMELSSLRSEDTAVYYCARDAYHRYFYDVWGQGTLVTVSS
T2 sequence (VL, as listed by the source, chain 2 of 2): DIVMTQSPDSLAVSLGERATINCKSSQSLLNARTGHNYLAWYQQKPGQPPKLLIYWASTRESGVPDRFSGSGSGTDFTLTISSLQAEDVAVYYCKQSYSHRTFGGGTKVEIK
Protocol: as §1, §2, §3

ADI-76359 = target: T3, ADI-76359; assay: SPR Carterra avidity, CHO anti-ID
T3 construct: anti-CD3 antibody made in CHO cells, captured by anti-human Fc
T3 sequence (VH, as listed by the source, chain 1 of 2): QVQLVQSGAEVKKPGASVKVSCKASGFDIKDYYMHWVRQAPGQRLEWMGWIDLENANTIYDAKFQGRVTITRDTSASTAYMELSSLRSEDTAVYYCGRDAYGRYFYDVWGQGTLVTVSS
T3 sequence (VL, as listed by the source, chain 2 of 2): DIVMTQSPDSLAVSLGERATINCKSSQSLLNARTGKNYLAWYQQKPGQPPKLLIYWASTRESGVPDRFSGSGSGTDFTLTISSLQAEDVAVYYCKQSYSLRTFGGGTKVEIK
Protocol: as §1, §2, §3

ADI-26913 IgG [2] = target: T4, ADI-26913 IgG; assay: SPR Carterra avidity, yeast anti-ID
T4 construct: anti-CD3 IgG
T4 sequence (VH, as listed by the source limits assumed, chain 1 of 2): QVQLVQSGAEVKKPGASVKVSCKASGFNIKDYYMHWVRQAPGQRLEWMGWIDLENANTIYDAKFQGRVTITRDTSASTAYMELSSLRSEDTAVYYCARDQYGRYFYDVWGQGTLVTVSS
Method in brief: (§4)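 Anti-human Fc capture chip (amine coupled); anti-CD3 IgG 100 nM, 5 min capture; 25° C, HBSTE. Non-regenerative kinetic cycles, anti-ID dissociation 300s; glycine pH 1.7 regeneration. Double-reference subtraction, 1:1 fit.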

ADI-26919 = target: T5, ADI-26919; assay: SPR Carterra avidity, yeast anti-ID
T5 construct: anti-CD3 antibody made in CHO cells, captured by anti-human Fc
T5 sequence (VH, as listed by the source limits assumed, chain 1 of 2): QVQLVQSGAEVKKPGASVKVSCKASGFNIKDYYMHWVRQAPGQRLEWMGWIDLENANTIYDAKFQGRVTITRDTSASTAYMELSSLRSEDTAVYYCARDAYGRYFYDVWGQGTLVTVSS
Method in brief: as §4

ADI-26920 IgG = target: T6, ADI-26920 IgG; assay: SPR Carterra avidity, yeast anti-ID
T6 construct: anti-CD3 IgG
T6 sequence (VH, as listed by the source limits assumed, chain 1 of 2): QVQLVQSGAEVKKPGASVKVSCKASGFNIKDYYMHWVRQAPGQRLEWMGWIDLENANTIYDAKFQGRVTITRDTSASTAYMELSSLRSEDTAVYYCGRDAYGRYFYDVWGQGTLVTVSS
Method in brief: as §4

ADI-26924 = target: T7, ADI-26924; assay: SPR Carterra avidity, yeast anti-ID
T7 construct: anti-CD3 antibody made in CHO cells, captured by anti-human Fc
T7 sequence (VH, as listed by the source, chain 1 of 2): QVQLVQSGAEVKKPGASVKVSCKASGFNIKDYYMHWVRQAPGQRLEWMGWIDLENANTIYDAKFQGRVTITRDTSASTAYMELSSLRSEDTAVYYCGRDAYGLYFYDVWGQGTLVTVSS
Method in brief: as §4

ADI-26943 = target: T8, ADI-26943; assay: SPR Carterra avidity, yeast anti-ID
T8 construct: anti-CD3 antibody made in CHO cells, captured by anti-human Fc
T8 sequence (VH, as listed by the source, chain 1 of 2): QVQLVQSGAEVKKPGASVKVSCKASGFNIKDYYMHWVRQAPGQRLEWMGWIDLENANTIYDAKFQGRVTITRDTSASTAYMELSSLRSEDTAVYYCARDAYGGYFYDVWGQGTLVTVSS
T8 sequence (VL, as listed by the source, chain 2 of 2): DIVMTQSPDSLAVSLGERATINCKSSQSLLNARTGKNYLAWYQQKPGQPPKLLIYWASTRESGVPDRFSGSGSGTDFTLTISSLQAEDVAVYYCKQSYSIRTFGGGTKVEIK
Method in brief: as §4

ADI-76357 = target: T9, ADI-76357; assay: SPR Carterra avidity, yeast anti-ID
T9 construct: anti-CD3 antibody made in CHO cells, captured by anti-human Fc
T9 sequence (VH, as listed by the source, chain 1 of 2): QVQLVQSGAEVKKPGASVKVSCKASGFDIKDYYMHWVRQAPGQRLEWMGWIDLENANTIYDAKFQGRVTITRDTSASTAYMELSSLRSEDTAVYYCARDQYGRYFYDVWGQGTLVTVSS
Method in brief: as §4

ADI-22523 Fab [3] = target: T10, ADI-22523 Fab; assay: BLI; tip anti-ID IgG, solution ADI-22523 Fab
T10 construct: anti-CD3 Fab by papain digestion of the IgG
T10 sequence (VH, as listed by the source limits assumed, chain 1 of 2): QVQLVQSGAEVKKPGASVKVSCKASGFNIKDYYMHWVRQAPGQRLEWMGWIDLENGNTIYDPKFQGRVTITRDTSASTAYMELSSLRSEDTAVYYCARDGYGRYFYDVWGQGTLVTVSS
T10 sequence (VL, as listed by the source limits assumed, chain 2 of 2): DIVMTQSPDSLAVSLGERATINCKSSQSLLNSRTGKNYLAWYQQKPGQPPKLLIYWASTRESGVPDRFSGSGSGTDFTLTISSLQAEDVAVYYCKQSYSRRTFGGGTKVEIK
Method in brief: (§5)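 Sensors carrying captured anti-ID IgG were equilibrated 30 min in assay buffer before a 60 s baseline. Equilibrium KD was taken as koff/kon from a 1:1 model.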

ADI-22523 IgG [4] = target: T11, ADI-22523 IgG; assay: BLI; tip anti-ID IgG, solution ADI-22523 IgG
T11 construct: anti-CD3 IgG
Method in brief: as §5

ADI-22523 Fab [5] = target: T10, ADI-22523 Fab; assay: BLI; tip ADI-34145 IgG, solution anti-CD3 Fab
Protocol: (§6) ForteBio affinity measurements were performed generally as previously described (Estep et al., MAbs. 2013 5(2):270-8). Briefly, ForteBio affinity measurements were performed by loading antibody IgG or Fabs on-line onto AHC sensors. Sensors were equilibrated off-line in assay buffer for 30 minutes and then monitored on-line for 60 seconds for baseline establishment. For avid binding measurement, sensors with loaded antibodies were exposed to IgG or Fab solutions for 3 minutes, afterwards they were transferred to assay buffer for 3 minutes for off-rate measurement. Kinetics data were fit using a 1:1 binding model in the data analysis software provided by ForteBio to obtain equilibrium dissociation constant (KD=koff/kₒₙ) values. In each column, tip-immobilized antibodies are listed first and solution antibodies second.
(§7) CTL-19613 is an IgG1 antibody prepared with anti-CD3 variable domains corresponding with those of clone 12C described in United States Publication Number US 2010/0183615 (e.g., see paragraphs 469-479 and FIG. 25 thereof), which also make up the CD3 binding domain of the bispecific antibody pasotuxizumab. […] In each column, tip-immobilized antibodies are listed first and solution antibodies second.

ADI-26920 Fab = target: T12, ADI-26920 Fab; assay: BLI; tip ADI-34145 IgG, solution anti-CD3 Fab
T12 construct: anti-CD3 Fab by papain digestion of the IgG
Protocol: as §6, §7

CTL-19672 Fab = target: T13, CTL-19672 Fab; assay: BLI; tip ADI-34145 IgG, solution anti-CD3 Fab
T13 construct: anti-CD3 Fab by papain digestion of the IgG1
T13 sequence (VH, as listed by the source limits assumed, chain 1 of 2): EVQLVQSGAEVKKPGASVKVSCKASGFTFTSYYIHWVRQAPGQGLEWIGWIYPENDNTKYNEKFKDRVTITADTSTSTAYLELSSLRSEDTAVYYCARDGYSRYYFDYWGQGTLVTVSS
T13 sequence (VL, as listed by the source limits assumed, chain 2 of 2): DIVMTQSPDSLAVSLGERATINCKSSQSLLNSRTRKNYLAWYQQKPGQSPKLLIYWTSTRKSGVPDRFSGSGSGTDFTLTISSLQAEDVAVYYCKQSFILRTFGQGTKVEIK
Protocol: as §6, §7

ADI-26906 IgG [6] = target: T14, ADI-26906 IgG; assay: SPR Carterra avidity, CHO anti-ID, *koff limit
T14 construct: anti-CD3 IgG
Protocol: as §1, §2
For data processing and fitting, sensorgrams were double reference subtracted with a baseline drift correction of 4 RU. Sensorgrams were y-aligned and baseline corrected, filtered and cropped to include only the association and dissociation steps. Data was fitted to a 1:1 binding model using Carterra Kinetics Data Analysis software version 1.7.1.3055.

ADI-22523 IgG [7] = target: T11, ADI-22523 IgG; assay: BLI; tip ADI-34134 IgG, solution anti-CD3 IgG
Protocol: as §6
(§8) In each column, tip-immobilized antibodies are listed first and solution antibodies second.

ADI-26927 IgG = target: T15, ADI-26927 IgG; assay: BLI; tip ADI-34134 IgG, solution anti-CD3 IgG
T15 construct: anti-CD3 IgG
T15 sequence (VH, as listed by the source limits assumed, chain 1 of 2): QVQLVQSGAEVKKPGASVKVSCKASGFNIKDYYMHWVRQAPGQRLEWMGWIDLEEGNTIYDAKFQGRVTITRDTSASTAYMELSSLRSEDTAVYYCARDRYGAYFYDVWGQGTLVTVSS
Protocol: as §6, §8

ADI-26928 IgG = target: T16, ADI-26928 IgG; assay: BLI; tip ADI-34134 IgG, solution anti-CD3 IgG
T16 construct: anti-CD3 IgG
T16 sequence (VH, as listed by the source limits assumed, chain 1 of 2): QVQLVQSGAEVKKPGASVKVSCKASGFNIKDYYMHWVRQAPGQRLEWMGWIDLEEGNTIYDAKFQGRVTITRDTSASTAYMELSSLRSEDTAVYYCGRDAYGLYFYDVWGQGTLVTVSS
Protocol: as §6, §8

ADI-26941 IgG = target: T17, ADI-26941 IgG; assay: BLI; tip ADI-34134 IgG, solution anti-CD3 IgG
T17 construct: anti-CD3 IgG
T17 sequence (VH, as listed by the source limits assumed, chain 1 of 2): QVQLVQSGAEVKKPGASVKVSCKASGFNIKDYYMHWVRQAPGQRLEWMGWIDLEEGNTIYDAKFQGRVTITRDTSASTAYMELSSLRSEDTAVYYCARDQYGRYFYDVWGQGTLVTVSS
Protocol: as §6, §8

ADI-26954 IgG = target: T18, ADI-26954 IgG; assay: BLI; tip ADI-34134 IgG, solution anti-CD3 IgG
T18 construct: anti-CD3 IgG
T18 sequence (VH, as listed by the source limits assumed, chain 1 of 2): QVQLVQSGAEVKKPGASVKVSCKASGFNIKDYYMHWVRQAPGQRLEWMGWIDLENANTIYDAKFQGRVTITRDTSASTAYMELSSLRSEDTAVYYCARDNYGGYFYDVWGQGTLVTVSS
T18 sequence (VL, as listed by the source limits assumed, chain 2 of 2): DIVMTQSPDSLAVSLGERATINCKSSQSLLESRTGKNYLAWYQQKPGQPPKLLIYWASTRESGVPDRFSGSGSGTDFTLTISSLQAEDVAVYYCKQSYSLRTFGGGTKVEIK
Protocol: as §6, §8

CTL-19613 IgG = assay: BLI; tip ADI-34134 IgG, solution anti-CD3 IgG
Protocol: as §6, §8

ADI-26906 IgG [8] = target: T14, ADI-26906 IgG; assay: BLI; tip ADI-34134 IgG, solution anti-CD3 IgG
Protocol: as §6, §8

ADI-26913 IgG [9] = target: T4, ADI-26913 IgG; assay: BLI; tip ADI-34134 IgG, solution anti-CD3 IgG
Protocol: as §6, §8

ADI-26921 IgG = target: T19, ADI-26921 IgG; assay: BLI; tip ADI-34134 IgG, solution anti-CD3 IgG
T19 construct: anti-CD3 IgG
T19 sequence (VH, as listed by the source limits assumed, chain 1 of 2): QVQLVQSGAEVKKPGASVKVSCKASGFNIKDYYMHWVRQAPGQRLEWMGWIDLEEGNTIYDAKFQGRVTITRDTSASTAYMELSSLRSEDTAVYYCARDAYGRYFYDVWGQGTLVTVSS
Protocol: as §6, §8

ADI-26916 IgG [10] = target: T1, ADI-26916 IgG; assay: BLI; tip ADI-34134 IgG, solution anti-CD3 IgG
Protocol: as §6, §8

Binder | Kd (ADI-26916 IgG [1]) | Kd (ADI-74968) | Kd (ADI-76359) | Kd (ADI-26913 IgG [2]) | Kd (ADI-26919) | Kd (ADI-26920 IgG) | Kd (ADI-26924) | Kd (ADI-26943) | Kd (ADI-76357) | Kd (ADI-22523 Fab [3]) | Kd (ADI-22523 IgG [4]) | Kd (ADI-26906 IgG [6]) | further results
B1 | 17 nM | 41 nM | 8 nM | 18 nM | 18 nM | 8.6 nM | 17 nM | 9.5 nM | 23 nM | 4.13 nM | 2.72 nM | 6.4 nM | Kd (ADI-22523 Fab [5]): 3.16 nM; Kd (ADI-26920 Fab): 3.71 nM; binding result (CTL-19672 Fab): no binding
B2 | 0.17 nM | 0.78 nM | 0.15 nM | 21 nM | 9.1 nM | 16 nM | 20 nM | 13 nM | 9.5 nM | 5.62 nM | 0.46 nM | 0.18 nM | Kd (ADI-22523 IgG [7]): 0.46 nM; Kd (ADI-26927 IgG): 0.45 nM; Kd (ADI-26928 IgG): 0.46 nM; Kd (ADI-26941 IgG): 1.13 nM; Kd (ADI-26954 IgG): 1.04 nM; Kd (CTL-19613 IgG): 9.21 nM; Kd (ADI-26906 IgG [8]): 0.43 nM; Kd (ADI-26913 IgG [9]): 0.77 nM; Kd (ADI-26921 IgG): 0.85 nM; Kd (ADI-26916 IgG [10]): 0.57 nM
